3 molecules from PMC3190825 can be followed below.

Common to all, as to experiment: SPR
In experiment [1] the target is IgABR tandem construct of protein β (group B Streptococcus).
In experiment [2] the target is Recombinant B6N fragment of protein β (single copy) (group B Streptococcus).
Experiment [3] addresses B6N tandem construct of protein β (group B Streptococcus).

In general, Kd refers to the concentration at which binding is half-saturated. On to Purified human IgA (natural protein), for which the dissociation constant Kd in experiment [1] came out at 61 nM. For “Recombinant hSiglec-5-Fc chimera (from UniProt O15389 17-441) (Fc fusion)”, the Kd in experiment [2] was 14 nM.

B1: Recombinant hSiglec-5-Fc chimera (Fc fusion)
chain: EKPVYELQVQKSVTVQEGLCVLVPCSFSYPWRSWYSSPPLYVYWFRDGEIPYYAEVVATNNPDRRVKPETQGRFRLLGDVQKKNCSLSIGDARMEDTGSYFFRVERGRDVKYSYQQNKLNLEVTALIEKPDIHFLEPLESGRPTRLSCSLPGSCEAGPPLTFSWTGNALSPLDPETTRSSELTLTPRPEDHGTNLTCQMKRQGAQVTTERTVQLNVSYAPQTITIFRNGIALEILQNTSYLPVLEGQALRLLCDAPSNPPAHLSWFQGSPALNATPISNTGILELRRVRSAEEGGFTCRAQHPLGFLQIFLNLSVYSLPQLLGPSCSWEAEGLHCRCSFRARPAPSLCWRLEEKPLEGNSSQGSFKVNSSSAGPWANSSLILHGGLSSDLKVSCKAWNIYGSQSGSVLLLQGRSNLGTGVVPAAL
modifications: 125I (chloramine-T method) in the assays with radiolabeled hSiglec-5
For B1, in experiment [3], the Kd stood at 3.5 nM.
